Our source for the Co-culture killing assay; decrease of CD19+ cells incubated with EXO-CD19-CAR and Cytotoxicity assay of EXO-CAR-T against tumor cells (Namalwa); CD19+ cells eliminated values is patent US20240252637A1.

In this assay the target is CD19 on Namalwa cells (UniProt P15391). Nature of the assay: cell-based or functional assay.
Sequence of UniProt P15391 (P15391 20-556 limits assumed): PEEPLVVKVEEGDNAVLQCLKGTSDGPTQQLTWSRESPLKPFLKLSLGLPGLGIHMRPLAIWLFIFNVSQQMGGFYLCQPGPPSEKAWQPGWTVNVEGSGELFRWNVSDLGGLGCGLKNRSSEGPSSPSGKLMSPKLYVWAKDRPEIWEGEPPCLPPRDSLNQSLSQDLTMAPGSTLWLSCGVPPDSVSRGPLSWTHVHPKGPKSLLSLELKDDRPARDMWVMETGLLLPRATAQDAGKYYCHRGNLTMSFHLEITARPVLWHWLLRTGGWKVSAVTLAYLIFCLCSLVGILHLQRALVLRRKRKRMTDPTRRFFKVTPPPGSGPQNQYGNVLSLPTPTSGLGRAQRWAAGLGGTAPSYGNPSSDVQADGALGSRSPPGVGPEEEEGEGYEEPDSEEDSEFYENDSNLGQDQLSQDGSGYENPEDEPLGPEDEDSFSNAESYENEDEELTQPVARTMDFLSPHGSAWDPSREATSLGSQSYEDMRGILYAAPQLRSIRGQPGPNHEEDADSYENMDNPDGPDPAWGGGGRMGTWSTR

The substance “CD19-CAR (third generation anti-CD19 chimeric antigen receptor, from the lenti-EF1-CD19-3rd-CAR-eGFt plasmid, Creative Biolabs) on the surface of exosomes from CAR-T cells” came in with a Co-culture killing assay; decrease of CD19+ cells incubated with EXO-CD19-CAR of 60% and a Cytotoxicity assay of EXO-CAR-T against tumor cells (Namalwa); CD19+ cells eliminated at 150 µg/mL EXO-CAR-T of 70%.
